Experiment: soluble on expression in E. coli; label from the status in PepcDB or PDB records

Sequence | soluble on expression in E. coli
MGHHHHHHSHMSERSVSKRTEQKRWYTVQAPEQFDREVLGKTPAEEPDKVLGRTIETTLGELTNDASENNTKLTFKINEVASDSAYTEFIRHELTRDYLRSLVRRGSSKVEAYITVLTTDDYRVQIQPVAVTTKKADASQEKAIRRTMIDLVRETAEDHTFEQLIDSVVEGRLSSAIYGEAKDIYPLRRVEIKKTTLEARPEEVAAEEETAVDVDEEDVDVEA | soluble
MDSPQYLFLDFEFTMPETKTNPDGFCPEIIEVGLVAVVDDQIIGQFSSYVKPLRFPQLTERCKSFLNITQEQIDRGMSFYELVSLLRQYDRDRPTTVMTWGSMDMKVLRENCQSARVEFPFTGEHRDLAMEYKRFFGNKNQTALRKAVQEYGNEAVGKAHCALDDAFTAYTIFRLVENDKKYLAKTKPPTIGERIDLSQLRKKFAL | not soluble
MGSDKIHHHHHHMRYVILARNLDSKAGGISVYGRNLIKKLEAKGIDVIISPKEKFSYFKWLLFDVPIFILKTDADVYHAIGIIEGILLPFIKPRAKKYLTVHDLIPLKYKGRGFRKILERFLVRLGLFSARFYDKIFAVSHLTKLDVIRFGGIDENKIEVVYQPIDDKFLKTPTSGKRHKTFNIGYISRMEAYKRHELLIKLFMKYKNPNARLYLAGTGPLFKKIQKLAEEDKRIILLGFVPDDKIVEFYDMLDVYIHPSKYEGWGLPIVEATARKKPVIIFEDAEIPREVKYLCLSIDFNIINPLISNLKYLKKVGVIKNKAWRRIYENSICH | not soluble
MQTFFIAPTDFGVGLTSISLGLVRTLERAGLKVGFFKPIAQPHPGDLGPERSTELMARTHGLKPPKPLGLAHVERMLGDGQLDELLEEIINLYQQAAVGKDVLVVEGMVPTRSASYAARVNLHLAKSLDAEVILVSAPENEVLTELSGRVELQAQLFGGPKDPKVLGVILNKVRTEESMEVFAARLKEHSPLLRNGDFRLLGCIPYRAELNAPRTRDVAELLGAQ | not soluble
MTTIGTRKRVAVVTGASSGIGEATARTLAAQGFHVVAVARRADRITALANQIGGTAIVADVTDDAAVEALARALSRVDVLVNNAGGAKGLQFVADADLEHWRWMWDTNVLGTLRVTRALLPKLIDSGDGLIVTVTSIAAIEVYDGGAGYTAAKHAQGALHRTLRGELLGKPVRLTEIAPGAVETEFSLVRFDGDQQRADAVYAGMTPLVAADVAEVIGFVATRPSHVNLDQIVIRPRDQASASRRATHPVR | not soluble
MLKLARPFIPPLSRNNAISSGIVLTSRRFQSSFTFLSNQSLLSKNQMKSKRKKGSKKAAYHRQPPEHEHTAPLIKQNKTITKKEHSDVRGSHLKKKRSDFSWLPRVPSTSHLKQSDMTTNVLYSGYRPLFINPNDPKLKEDTGSTLYEFAMKLEDLNEPLSPWISSATGLEFFSEWENIPSELLKNLKPFHPPKEKSMNTNELIHVSAKRNTLVDNKTSETLQRKMDEFSKRRGKGRKKSVVTLLQMKKKLEG | not soluble
NKDMSFVIRGNFTYSKNKIDNWEQIEQKYAYQNFSGWPYGIQRGYIALGLFRDEADINNSPIQTFGNYEAGDIKYKDVNGDGRIDIDDQVPLSYDNYPRLMYGFGGEFRYKNLTFNILFKGIGKKDFFYTSEDSGFGYYPFLYGETGNVLSIVANSSNRWIPASYSGDPSTENPNARFPRLSYGKNSNNTQKSTFWKANGQYLRLQEISVGYNLKLKAFSKIGVSSIDLQLVGQDLYVWDKIGGLWDPEQTTKNGRAYPIPATYSLQMYINF | not soluble
PYHGKSKPNKETFVCDLKTSLSNEAIGYIGKANTVGILLSGGMDSRVVAGVVRDLQKNNRSISVVGITWGNANSRDVIYSQRICQQFGWEFVHFPITAETLHKNIQLSAKMGAEVSALHFHAMSDVADLKGVDVILAGSYGDSVGRAEFSGKHVTKLSSVLPSRINNLGLIKDELFQSALESIRNDAQLPAFHNAGDNNLRKYEIEQECHYMRRMLQSCMHVVAEKIPFYQMFTAPSVFGLMWGLEPNIRNNDWYVELLNILPGQLLQIPWARTGILYHLPEGTADEFDKSYHQYGLWLKTELKDEMLNAMNSKSIRELGIFN | not soluble
MDNPVTFSDITLLNTLATCANMTTDEVFKDFKIMANKKILKNHKYEIYYSESEKSWRTYLPDETKPNKRRPVKRKSKENLEKEIIRFYIEKQKAENRQNVTLEELYAEWLLYKRDYTSVKAKTIQEYVSEWNRFFKDTELVKMKIGEIKPITLIRFFREATKDRQFTHKRVSNARSVLNGIMSYAIEEEIISHNPVSDVNFKQFTYKPVEVQSDNVFSRDDTHKLLNYLRCIIEPYSLAIQLSFYLFIRVGETKAIRWEDIDYNNRLVYFHRQATCERTLNDDLTFSSRKVKVVNQMKGNTSHGFRKQFLTDEALKILHKAKELNPNGIYVFEPNGEIMTTDSFNRRLKKYCKEAGVPYHSSHKIRFYNASTAFDGNNLTTLSYLMGHSETATTLHYLRNVNKRKNDRLAFQNLGISS | not soluble
MGSDKIHHHHHHMTLLNMSNVQIMDVVQALSLSIERGERVGLIGESGSGKTITAMSILRLIPSSGSIVFDGADIQGLSEKQMCALRGKRISMVFQEPMTALDPLMKVGTQISHAIRIHSSVSRAQARKKADALLHSVELDPELRSRYPHELSGGQRQRILIAMALAHDPDLLICDEPTTALDVTSQKAIVDLILRLVAERGTGLLFITHDLGLVARTCERVLVMREGRIIESGTVEDVLKNPREDYTAMLVQASTLAPAPQVALSDDEVLHIDNVTKKYRGTTAVEDVTLTVHRGERLGIVGGSGSGKTTLLKMISGLSSPTSGHINTEGSMRIVFQDPMQSLDPHMSIADIVSEPLGHRDLKAVERALEEVGLDAGMMNRLPHEFSGGQRQRISIARALVSSPDILLADEPVSALDVSVRAKVLALLDRLVSERHLTMLFVSHDLHVVRSLCTTVAVMREGKIVEYGPTEDVFNNPQHEYTKALIEAIPSL | not soluble
MPFHIGSGCLPAIISNRRIYRIAWSDTPPEMSSWEKMKEFFCSTHQAEALECIWTICHPPAGTTREDVVSRFELLRTLAYDGWEENIHSGLHGENYFCILDEDSQEILSVTLDDVGNYTVNCQGYSETHHLTMATEPGVERTDITYNLTSDIDAAAYLEELKQNPIINNKIMNPVGQCESLMTPVSNFMNEKGFDNIRYRGIFIWDKPTEEIPTNHFAVVGNKEGKDYVFDVSAHQFENRGMSNLNGPLILSADEWVCKYRMATRRKLIYYTDFSNSSIAANAYDALPRELESESMAGKVFVTSPRWFNTFKKQKYSLIGKM | not soluble
TKDFEWSSTINAAYQKDEIVELANGKQDDISNAWFIGESINVFYGTASDGLWQESDAAEMAKFNANGHKFEAGMVKPVDQDGNYIIDSNDRIILGNKNPKWVLGWSNTFNYKGLELGIELNGRFGYMVDTGGEGQYGMYNQREISYWTPDNTGADYQKPIYSTAGGDAYSSLLGFKDASFIKIRNISLGYNFNSKALKNIGISSLKLYAQAKNIGNLYSSVDFMDLDLGTTYYNRGFTFGLQVGF | not soluble
QSNAIWGLDRIDQRNLPLDRNYNANFDGFGVTAYVIDTGVNNNHEEFGGRSVSGYDFVDNDADSSDCNGHGTHVAGTIGGSQYGVAKNVNIVGVRVLSCSGSGTTSGVISGVDWVAQNASGPSVANMSLGGGQSTALDSAVQGAIQSGVSFMLAAGNSNADACNTSPARVPSGVTVGSTTSSDSRSSFSNWGSCVDLFAPGSQIKSAWYDGGYKTISGTSMATPHVAGVAALYLQENNGLTPLQLTGLLNSRASENKVSDTRGTTNKLLYSLADSGCEPDCGGP | soluble
MMFDRRFFALVVLLCVSAVRSTEDASDDELNYEMDEGVVVLTDKNFDAFLKKNPSVLVKFYAPWCGHCKHLAPEYEKASSKVSIPLAKVDATVETELGKRFEIQGYPTLKFWKDGKGPNDYDGGRDEAGIVEWVESRVDPNYKPPPEEVVTLTTENFDDFISNNELVLVEFYAPWCGHCKKLAPEYEKAAQKLKAQGSKVKLGKVDATIEKDLGTKYGVSGYPTMKIIRNGRRFDYNGPREAAGIIKYMTDQSKPAAKKLPKLKDVERFMSKDDVTIIGFFATEDSTAFEAFSDSAEMLREEFKTMGHTSDPAAFKKWDAKPNDIIIFYPSLFHSKFEPKSRTYNKAAATSEDLLAFFREHSAPLVGKMTKKNAATRYTKKPLVVVYYNADFSVQYREGSEYWRSKVLNIAQKYQKDKYKFAVADEEEFAKELEELGLGDSGLEHNVVVFGYDGKKYPMNPDEFDGELDENLEAFMKQISSGKAKAHVKSAPAPKDDKGPVKTVVGSNFDKIVNDESKDVLIEFYAPWCGHCKSFESKYVELAQALKKTQPNVVLAKMDATINDAPSQFAVEGFPTIYFAPAGKKSEPIKYSGNRDLEDLKKFMTKHGVKSFQKKDEL | not soluble
NSLDNQVRLLLEDSVPKYNASYFLESKTSEINRRVEALQAVDNKVQLTEQAMQVNEQLASISTVLKSNKMSSEFYQLLESEAGLASLLEKYVDMISTRIDQTRRVDQLMEQINWLHQDIRSELKPVRQEVHWQIERVNDSKEIQNLLVQLSTLQRVIDIESAVYDMAIDVAGASMPEQVDNGMKVIHFRLMDLQESSTTLMNQPTSIAYKQLLQELVVVLSPEGAFDKQLMSLVTLNGDIQKIQEQIALSMEAIHQQIGELVSTADQTFKQVKSETAERVSYGN | not soluble
VVDFGALPPEINSARMYAGPGSASLVAAAKMWDSVASDLFSAASAFQSVVWGLTTGSWIGSSAGLMVAAASPYVAWMSVTAGQAELTAAQVRVAAAAYETAYGLTVPPPVIAENRAELMILIATNLLGQNTPAIAVNEAEYGEMWAQDAAAMFGYAATAATATEALLPFEDAPLITNPGGLLEQAVAVEEAIDTAAANQLMNNVPQALQQLAQPTKSIWPFDQLSELWKAISPHLSPLSNIVSMLNNHVSMTNSGVSMASTLHSMLKGFAPAAAQAVETAAQNGVQAMSSLGSQLGSSLGSSGLGAGVAANLGRAASVGSLSVPQAWAAANQAVTPAARALPLTSLTSAAQTAPGHMLGGLPLGQLTNSGGGFGGVSNALRMPPRAYVMPRVPAAG | soluble
TPVSEKQLAEVVANTVTPLMKAQSVPGMAVAVIYQGKPHYYTFGKADIAANKPVTPQTLFELGSISKTFTGVLGGDAIARGEISLDDPVTRYWPQLTGKQWQGIRMLDLATYTAGGLPLQVPDEVTDNASLLRFYQNWQPQWKPGTTRLYANASIGLFGALAVKPSGMPYEQAMTTRVLKPLKLDHTWINVPKAEEAHYAWGYRDGKAVRAVRVSPGMLDAQAYGVKTNVQDMANWVMANMAPENVADASLKQGIALAQSRYWRIGSMYQGLGWEMLNWPVEANTVVEGSDSKVALAPLPVAEVNPPAPPVKASWVHKTGSTGGFGSYVAFIPEKQIGIVMLANTSYPNPARVEAAYHILEALQ | soluble
MSILRIHAREIFDSRGNPTVEVDLYTAKGLFRAAVPSGASTGIYEALELRDNDKTRFMGKGVSQAVEHINKTIAPALVSKKVNVVEQEKIDKLMIEMDGTENKSKFGANAILGVSLAVCKAGAVEKGVPLYRHIADLAGNPEVILPVPAFNVINGGSHAGNKLAMQEFMILPVGASSFREAMRIGAEVYHNLKNVIKEKYGKDATNVGDEGGFAPNILENKEALELLKTAIAKAGYTDQVVIGMDVAASEFYRSGKYDLDFKSPDDPSRYITPDQLADLYKSFVQNYPVVSIEDPFDQDDWGAWQKFTASAGIQVVGDDLTVTNPKRIAKAASEKSCNCLLLKVNQIGSVTESLQACKLAQSNGWGVMVSHRSGETEDTFIADLVVGLCTGQIKTGAPCRSERLAKYNQILRIEEELGSKAKFAGRSFRNPLAK | soluble
